Data taken from patent US20140357543A1.
Numbering of substitutions follows the chain as printed.

T1: alcalase (trade name "Alcalase 2.5L", Novozymes) (UniProt P00780)
T1 sequence (looked up): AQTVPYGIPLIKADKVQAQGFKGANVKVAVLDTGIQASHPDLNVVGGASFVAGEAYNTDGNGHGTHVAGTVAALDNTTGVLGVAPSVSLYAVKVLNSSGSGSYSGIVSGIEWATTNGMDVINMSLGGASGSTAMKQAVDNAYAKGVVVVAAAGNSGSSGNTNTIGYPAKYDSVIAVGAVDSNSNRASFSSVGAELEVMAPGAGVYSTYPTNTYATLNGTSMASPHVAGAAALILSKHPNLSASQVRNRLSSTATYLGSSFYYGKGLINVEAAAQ

B1: proteinaceous protease inhibitor of SEQ ID NO:26 (protein)
chain: TDTGDHHNQKTDWPELVGKSVEEAPKVILQDKSEAPIAVLPVGTLVTAEAAAARVRLFVDSLDKIAQVPAVG
B2: proteinaceous protease inhibitor of SEQ ID NO:2 (protein)
chain: TDTGDHHNQKTDWPELVGKSVEEAKKVILQDKSEAQIVVLPVGTIVTMEYRIDRVRLFVDSLDKIAQVPRVG
B3: proteinaceous protease inhibitor of SEQ ID NO:13 (protein)
chain: B2 chain with D12E, R51K
B4: proteinaceous protease inhibitor of SEQ ID NO:21 (protein)
chain: B2 chain with D12E, R70K
B5: proteinaceous protease inhibitor of SEQ ID NO:27 (protein)
chain: B2 chain with D12K
B6: proteinaceous protease inhibitor of SEQ ID NO:28 (protein)
chain: B2 chain with D12E, Y50G
B7: proteinaceous protease inhibitor of SEQ ID NO:19 (protein)
chain: B2 chain with D12E, R70A
B8: proteinaceous protease inhibitor of SEQ ID NO:18 (protein)
chain: B2 chain with D12E, D53A
B9: proteinaceous protease inhibitor of SEQ ID NO:24 (protein)
chain: B2 chain with D12E, M48G, R70A
B10: proteinaceous protease inhibitor of SEQ ID NO:25 (protein)
chain: B2 chain with D12E, V38A, R70A
B11: proteinaceous protease inhibitor of SEQ ID NO:3 (protein)
chain: B2 chain with D12A
B12: proteinaceous protease inhibitor of SEQ ID NO:7 (protein)
chain: B2 chain with D12E, M48A
B13: proteinaceous protease inhibitor of SEQ ID NO:16 (protein)
chain: B2 chain with D12E, I52V
B14: proteinaceous protease inhibitor of SEQ ID NO:4 (protein)
chain: B2 chain with D12E, V38A
B15: proteinaceous protease inhibitor of SEQ ID NO:9 (protein)
chain: B2 chain with D12E, Y50A
B16: proteinaceous protease inhibitor of SEQ ID NO:5 (protein)
chain: B2 chain with D12E, V38L
B17: proteinaceous protease inhibitor of SEQ ID NO:22 (protein)
chain: B2 chain with D12E, V38A, R51A, I52A
B18: proteinaceous protease inhibitor of SEQ ID NO:14 (protein)
chain: B2 chain with D12E, R51H
B19: proteinaceous protease inhibitor of SEQ ID NO:20 (protein)
chain: B2 chain with D12E, R70G
B20: proteinaceous protease inhibitor of SEQ ID NO:6 (protein)
chain: B2 chain with D12E, V38I
B21: proteinaceous protease inhibitor of SEQ ID NO:29 (protein)
chain: B2 chain with D12E, R70N
B22: proteinaceous protease inhibitor of SEQ ID NO:15 (protein)
chain: B2 chain with D12E, I52A
B23: proteinaceous protease inhibitor of SEQ ID NO:10 (protein)
chain: B2 chain with D12E, Y50L
B24: proteinaceous protease inhibitor of SEQ ID NO:17 (protein)
chain: B2 chain with D12E, D53E
B25: proteinaceous protease inhibitor of SEQ ID NO:11 (protein)
chain: B2 chain with D12E, Y50F
B26: proteinaceous protease inhibitor of SEQ ID NO:8 (protein)
chain: B2 chain with D12E, M48G
B27: proteinaceous protease inhibitor of SEQ ID NO:12 (protein)
chain: B2 chain with D12E, R51A
B28: proteinaceous protease inhibitor of SEQ ID NO:23 (protein)
chain: B2 chain with D12E, V38A, I52A, D53A
B29: proteinaceous protease inhibitor (BC) of SEQ ID NO:1, wheat-derived subtilisin/chymotrypsin inhibitor (protein)
chain: B2 chain with D12E
B30: proteinaceous protease inhibitor of SEQ ID NO:30 (protein)
chain: MSSVEKKPEGVNTGAGDRHNLKTAWPELVGKSVEEAKKVILQDKSEAQIIVLPVGTIVTMEYRIDRVRLFVDKLDNIAQVPRVG
B31: proteinaceous protease inhibitor of SEQ ID NO:33 (protein)
chain: B30 chain with A24E, R63A
B32: proteinaceous protease inhibitor of SEQ ID NO:32 (protein)
chain: B30 chain with A24E, Y62A
B33: proteinaceous protease inhibitor of SEQ ID NO:36 (protein)
chain: B30 chain with A24E, R82A
B34: proteinaceous protease inhibitor of SEQ ID NO:41 (protein)
chain: B30 chain with A24E
B35: proteinaceous protease inhibitor of SEQ ID NO:31 (protein)
chain: B30 chain with A24E, I50A
B36: proteinaceous protease inhibitor of SEQ ID NO:34 (protein)
chain: B30 chain with A24E, I64A
B37: proteinaceous protease inhibitor of SEQ ID NO:35 (protein)
chain: B30 chain with A24E, D65A
B38: proteinaceous protease inhibitor of SEQ ID NO:40 (protein)
chain: TECGGGGGAKTSWPEVVGLSVEEAKKVILKDKPDADIVVLPVGSVVTADYRPNRVRIFVDIVAQTPHVG

Target: T1, alcalase (trade name "Alcalase 2.5L", Novozymes)
Test: cell-based or functional assay

Point of comparison: B22, Protease activity upon dilution (%) immediately after preparation 80%. Against it:
- B1 — higher, 85%
- B2 — higher, 100%
- B3 — lower, 25%
- B4 — higher, 100%
- B5 — higher, 98%
- B6 — higher, 90%
- B7 — higher, 85%
- B8 — higher, 85%
- B9 — higher, 82%
- B10 — the same, 80%
- B11 — higher, 89%
- B12 — higher, 86%
- B13 — higher, 95%
- B14 — the same, 80%
- B15 — higher, 85%
- B16 — higher, 100%
- B17 — higher, 82%
- B18 — higher, 85%
- B19 — higher, 100%
- B20 — lower, 10%
- B21 — higher, 95%
- B23 — higher, 90%
- B24 — higher, 95%
- B25 — higher, 90%
- B26 — higher, 85%
- B27 — lower, 20%
- B28 — higher, 82%
- B29 — lower, 10%
- B30 — the same, 80%
- B31 — lower, 18%
- B32 — lower, 73%
- B33 — higher, 81%
- B34 — lower, 8%
- B35 — lower, 75%
- B36 — lower, 75%
- B37 — the same, 80%
- B38 — higher, 100%

Point of comparison: B35, Remaining activity (%) immediately after preparation 2%. Against it:
- B1 — higher, 19%
- B2 — higher, 10%
- B3 — higher, 4%
- B4 — higher, 13%
- B5 — higher, 16%
- B6 — higher, 18%
- B7 — the same, 2%
- B8 — higher, 3%
- B9 — higher, 20%
- B10 — lower, 1%
- B11 — higher, 7%
- B12 — higher, 25%
- B13 — higher, 9%
- B14 — the same, 2%
- B15 — higher, 18%
- B16 — higher, 11%
- B17 — lower, 1%
- B18 — higher, 5%
- B19 — higher, 10%
- B20 — lower, 0%
- B21 — higher, 19%
- B22 — higher, 3%
- B23 — higher, 9%
- B24 — higher, 9%
- B25 — higher, 8%
- B26 — higher, 23%
- B27 — the same, 2%
- B28 — lower, 1%
- B29 — lower, 0%
- B30 — higher, 15%
- B31 — lower, 1%
- B32 — higher, 15%
- B33 — lower, 1%
- B34 — lower, 0%
- B36 — lower, 1%
- B37 — the same, 2%
- B38 — higher, 53%
